What was measured:
GST-ORA59 [1] = target: T1, GST-ORA59 (Arabidopsis thaliana, UniProt Q9LND1 1-244); assay: EMSA; Chemiluminescent EMSA kit (Beyotime) EMSA/Gel-Shift binding buffer; salt, pH and temperature not stated; conditions: protein: recombinant, tags: N-terminal GST (pGEX), blunt
GST-ORA59 [2] = target: T1, GST-ORA59; assay: competition; 5-, 25-, 50-fold excess vs biotin-OBS1; Chemiluminescent EMSA kit (Beyotime) EMSA/Gel-Shift binding buffer; salt, pH and temperature not stated; conditions: protein: recombinant; tags: N-terminal GST (pGEX); blunt
GST-ORA59 [3] = target: T1, GST-ORA59; assay: competition; 5-, 25-, 50-fold excess vs biotin-OBS2; Chemiluminescent EMSA kit (Beyotime) EMSA/Gel-Shift binding buffer; salt, pH and temperature not stated; conditions: protein: recombinant; tags: N-terminal GST (pGEX); blunt

T1 sequence (Q9LND1 whole entry): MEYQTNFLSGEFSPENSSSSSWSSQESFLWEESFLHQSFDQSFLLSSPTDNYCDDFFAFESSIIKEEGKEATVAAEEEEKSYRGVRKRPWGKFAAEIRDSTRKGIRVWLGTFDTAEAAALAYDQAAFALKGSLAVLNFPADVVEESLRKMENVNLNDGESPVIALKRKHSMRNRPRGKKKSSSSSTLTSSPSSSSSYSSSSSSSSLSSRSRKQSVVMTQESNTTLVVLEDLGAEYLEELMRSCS

B1: OBS3 (dsDNA)
DNA 1: TATGAGTCAATCTCTTGAATTGTCTTCATATAATTAAAACCACTCGTTAACTTGTTAA
DNA 2: TTAACAAGTTAACGAGTGGTTTTAATTATATGAAGACAATTCAAGAGATTGACTCATA
binding result (GST-ORA59 [1]; label: 3' biotin): binds

B2: OBS5 (dsDNA)
DNA 1: ATGTACATAGATTCCTCTATATTCACCTCGAGAGCTAAACAACTACTTTCAAAAA
DNA 2: TTTTTGAAAGTAGTTGTTTAGCTCTCGAGGTGAATATAGAGGAATCTATGTACAT
binding result (GST-ORA59 [1]; label: 3' biotin): binds

B3: OBS1 (dsDNA)
DNA 1: ACGTAATTCAATAATATTCTACGTAATTTAATACTCACGACAACTTGCATAT
DNA 2: ATATGCAAGTTGTCGTGAGTATTAAATTACGTAGAATATTATTGAATTACGT
binding result (GST-ORA59 [1]; label: 3' biotin (probe)): binds

B4: mutant competitor V (OBS1, T/A-rich motif mutant) (dsDNA)
DNA 1: ACGTAATTCAAGAAGATTCTACGTAATTCAAGACTCACGACAACTTGCATAT
DNA 2: ATATGCAAGTTGTCGTGAGTCTTGAATTACGTAGAATCTTCTTGAATTACGT
binding result (GST-ORA59 [2]): no binding

B5: OBS2 (dsDNA)
DNA 1: TTGCATATAGATCCAACGATCTCCTCTTACCTAGAAAAAGAGAGAGTTGTTGACCCGTA
DNA 2: TACGGGTCAACAACTCTCTCTTTTTCTAGGTAAGAGGAGATCGTTGGATCTATATGCAA
binding result (GST-ORA59 [1]; label: 3' biotin (probe)): binds

B6: mutant competitor III (OBS2, BOX-W1 mutant) (dsDNA)
DNA 1: TTGCATATAGATCCAACGATCTCCTCTTACCTAGAAAAAGAGAGAGTTGTACACCCGTA
DNA 2: TACGGGTGTACAACTCTCTCTTTTTCTAGGTAAGAGGAGATCGTTGGATCTATATGCAA
binding result (GST-ORA59 [3]): binds

B7: mutant competitor IV (OBS2, unnamed motif and TCT-motif mutant) (dsDNA)
DNA 1: TTGCATATAGATCCAACGATCTCGACTTACCTAGAAAAAGAGAGAGTTGTTGACCCGTA
DNA 2: TACGGGTCAACAACTCTCTCTTTTTCTAGGTAAGTCGAGATCGTTGGATCTATATGCAA
binding result (GST-ORA59 [3]): binds

B8: mutant competitor II (OBS2, GAG-motif mutant) (dsDNA)
DNA 1: TTGCATATAGATCCAACGATCTCCTCTTACCTAGAAAAAGACACAGTTGTTGACCCGTA
DNA 2: TACGGGTCAACAACTGTGTCTTTTTCTAGGTAAGAGGAGATCGTTGGATCTATATGCAA
binding result (GST-ORA59 [3]): binds

B9: mutant competitor I (OBS2, T/A-rich motif mutant) (dsDNA)
DNA 1: TTGCAGACAGATCCAACGATCTCCTCTTACCTCGAAAAAGAGAGAGTTGTTGACCCGTA
DNA 2: TACGGGTCAACAACTCTCTCTTTTTCGAGGTAAGAGGAGATCGTTGGATCTGTCTGCAA
binding result (GST-ORA59 [3]): no binding

B10: OBS4 (dsDNA)
DNA 1: ACATAAAACTATTTAATATGGTTCCATCCTTCCATGTACATAGATTCCTCT
DNA 2: AGAGGAATCTATGTACATGGAAGGATGGAACCATATTAAATAGTTTTATGT
binding result (GST-ORA59 [1]; label: 3' biotin): binds

Reference: publication PMC7754472, “RPW8.1 enhances the ethylene‐signaling pathway to feedback‐attenuate its mediated cell death and disease resistance in Arabidopsis”
